Biological target: AaRseP(WT)-His8 (Aquifex aeolicus RseP, wild type) (Aquifex aeolicus, UniProt O67776)
Assay: cryo-EM structure

B1: 4A9 Fab (Fab of the anti-AaRseP mouse monoclonal antibody 4A9), with PA tag (Fab, V domains shown)
VH: EVKLVESGGGLVQPGGSLRLSCVTSGFTFTDYYMSWVRQPPGKALEWLAFIRNKVNGYTTEYRASVKGRFTISRDSSQSILYLQVNTLRAEDSATYYCARDRGGNGVYFDYWGQGTTLTVSS
VL: DIVMTQSHKFMSTSVGDRVSITCKASQDVGTDVAWYQQKPGQSPKLLIYWASIRHTGVPDRFTGSGSGTDFTLTISNVQSEDLADYFCQQYSSYPLTFGAGTKLELE
- binding result: binds
